# Measured values taken from the supplement of paper PMC9233669.
# Variants at the floor of the assay were thinned out.
# Legend:
# biotinyl-Ile-oxazolone = assay: self-aminoacylation, catalytic enhancement (BIO) (fold over background); higher = more active; k-Seq, kA / k0A0; sequences stand for … in GGGAAUGGAUCCACAUCUACGAAUUC…UUCACUGCAGACUUGACGAAGCUG
# Method in brief: (§1)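 Mutagenized RNA pools (0.43 μM; 21-nt variable region) were treated with 2–1250 μM of each biotinyl-aminoacyl-oxazolone. Conditions were 50 μL HEPES/NaCl/KCl/MgCl2/CaCl2 buffer, 5% acetonitrile, pH 6.9–7.0, room temperature, 90 minutes. Catalytic enhancement, the median kA relative to the uncatalyzed rate, was derived from streptavidin capture, qPCR and Illumina sequencing.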
# biotinyl-Val-oxazolone = assay: self-aminoacylation, catalytic enhancement (BVO) (fold over background); higher = more active; k-Seq, kA / k0A0; sequences stand for … in GGGAAUGGAUCCACAUCUACGAAUUC…UUCACUGCAGACUUGACGAAGCUG
# Method in brief: as §1
# biotinyl-Leu-oxazolone = assay: self-aminoacylation, catalytic enhancement (BLO) (fold over background); higher = more active; k-Seq, kA / k0A0; sequences stand for … in GGGAAUGGAUCCACAUCUACGAAUUC…UUCACUGCAGACUUGACGAAGCUG
# Method in brief: as §1
# biotinyl-Phe-oxazolone = assay: self-aminoacylation, catalytic enhancement (BFO) (fold over background); higher = more active; k-Seq, kA / k0A0; sequences stand for … in GGGAAUGGAUCCACAUCUACGAAUUC…UUCACUGCAGACUUGACGAAGCUG
# Method in brief: as §1
# biotinyl-Met-oxazolone = assay: self-aminoacylation, catalytic enhancement (BMO) (fold over background); higher = more active; k-Seq, kA / k0A0; sequences stand for … in GGGAAUGGAUCCACAUCUACGAAUUC…UUCACUGCAGACUUGACGAAGCUG
# Method in brief: as §1
# biotinyl-Trp-oxazolone = assay: self-aminoacylation, catalytic enhancement (BWO) (fold over background); higher = more active; k-Seq, kA / k0A0; sequences stand for … in GGGAAUGGAUCCACAUCUACGAAUUC…UUCACUGCAGACUUGACGAAGCUG
# Method in brief: as §1
Sequence,self-aminoacylation (biotinyl-Ile-oxazolone),self-aminoacylation (biotinyl-Val-oxazolone),self-aminoacylation (biotinyl-Leu-oxazolone),self-aminoacylation (biotinyl-Phe-oxazolone),self-aminoacylation (biotinyl-Met-oxazolone),self-aminoacylation (biotinyl-Trp-oxazolone)
AUUACUCUGGUCAUCGAGUGU [Fam2.1 aminoacylation ribozyme variant],2.52,2.57,4.37,4.35,4.24,3.92
AUUACUCUGGUCAUCGGGUGA [Fam2.1 aminoacylation ribozyme variant],5.43,6.05,11.8,39.7,10.1,12.2
AUUACUCUGGUCAUGGAGUGA [Fam2.1 aminoacylation ribozyme variant],2.42,2.05,3.98,3.58,3.28,3.35
AUUACUCUGGUCCUCGAGUGA [Fam2.1 aminoacylation ribozyme variant],2.31,2.01,4.34,18.2,3.62,4.62
AUUACUCUGGUCUUCGAGUGA [Fam2.1 aminoacylation ribozyme variant],3.13,2.85,5.04,21.2,5.11,7.1
AUUAGCCAGGUCAUCGAGUGA [Fam2.1 aminoacylation ribozyme variant],3.72,3.8,5.48,19.1,5.35,6.91
AUUAGCCUGGGCAUCGAGUGA [Fam2.1 aminoacylation ribozyme variant],3.66,3.8,8.51,57.8,6.92,7.8
AUUAGCCUGGUCAUAGAGUGA [Fam2.1 aminoacylation ribozyme variant],2.96,3.18,5.43,18.4,4.83,7.07
AUUAGCCUGGUCAUCAAGUGA [Fam2.1 aminoacylation ribozyme variant],2.74,2.45,4.41,17.9,4.31,4.94
AUUAGCCUGGUCAUCGGGUGA [Fam2.1 aminoacylation ribozyme variant],6.74,7.06,13.3,94.3,10.1,13.4
AUUAGCCUGGUCAUCGUGUGA [Fam2.1 aminoacylation ribozyme variant],1.96,2.07,3.17,21.6,3.38,4.27
AUUAGGCUGGUCAUCGAGUGA [Fam2.1 aminoacylation ribozyme variant],2.53,2.48,2.85,8.97,3.01,4.23
AUUAUACUGGUCAUCGAGUGA [Fam2.1 aminoacylation ribozyme variant],2.91,2.56,5.28,6.45,4.91,5.99
AUUAUCCUGGACAUCGAGUGA [Fam2.1 aminoacylation ribozyme variant],2.88,3.06,6.24,34.7,6.78,8.19
AUUAUCCUGGUCAUCCAGUGA [Fam2.1 aminoacylation ribozyme variant],2.14,2.28,4.27,11.1,3.69,4.26
AUUAUCCUGGUCAUCGAGCGA [Fam2.1 aminoacylation ribozyme variant],1.77,1.41,1.83,1.01,1.59,1.46
AUUAUCCUGGUCAUCGAGUGA [Fam2.1 aminoacylation ribozyme variant],6.23,6.5,13.5,20.7,13,14.5
AUUAUCCUGGUCAUCGAGUGC [Fam2.1 aminoacylation ribozyme variant],1.29,1.25,2.16,1.72,1.77,0.981
AUUAUCCUGGUCAUCGGGUGA [Fam2.1 aminoacylation ribozyme variant],7.1,7.7,17.1,69.6,14.1,17.4
AUUAUCCUGGUCAUCUAGUGA [Fam2.1 aminoacylation ribozyme variant],4.87,4.98,10.8,77.8,10.6,13.2
AUUAUCCUGGUCAUUGAGUGA [Fam2.1 aminoacylation ribozyme variant],5.33,5.05,11.7,67.5,11.7,13.9
